According to the supplement of paper PMC10065799, “High-throughput profiling of sequence recognition by tyrosine kinases and SH2 domains using bacterial peptide display” (eLife, 2023):

Tests used:
AncSZ = assay: phosphorylation enrichment, bacterial display (enrichment ratio); higher = better substrate or ligand; peptides without Tyr show the background
EPHB1 = EPHB1 (UniProt P54762); assay: as above
EPHB2 = EPHB2 (UniProt P29323); assay: as above
FGFR1 = FGFR1 (UniProt P11362); assay: as above
FGFR3 = FGFR3 (UniProt P22607); assay: as above
Fer (mouse) = assay: as above
Fes = Fes (UniProt P07332); assay: as above
Fyn = Fyn (UniProt P06241); assay: as above
Hck = Hck (UniProt P08631); assay: as above
Jak2 = Jak2 (UniProt O60674); assay: as above
MERTK = MERTK (UniProt Q12866); assay: as above
c-Abl (mouse) = assay: as above
c-Src = assay: as above
Grb2 SH2 = Grb2 SH2 (UniProt P62993); assay: SH2 binding enrichment of the phosphorylated peptide, bacterial display (enrichment ratio); higher = better substrate or ligand; peptides without Tyr show the background
SHP2-C SH2 = assay: as above
c-Src SH2 = assay: as above
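Throughout, for SH2 binding enrichment of the phosphorylated peptide, bacterial display: peptide library displayed on the E. coli surface as eCPX fusions, selected cells deep-sequenced, score is each peptide's frequency after selection divided by its frequency in the input.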
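Throughout, for phosphorylation enrichment, bacterial display: 11-residue human phosphosite peptides and single-mutation variants displayed on the E. coli surface, counted by deep sequencing, each peptide's frequency after selection divided by its frequency in the unselected input library; frequency after pTyr selection over input frequency; kinase dosed for 20-30% of maximal phosphorylation in three min.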

Chain of MERTK (Q12866 whole entry, looked up): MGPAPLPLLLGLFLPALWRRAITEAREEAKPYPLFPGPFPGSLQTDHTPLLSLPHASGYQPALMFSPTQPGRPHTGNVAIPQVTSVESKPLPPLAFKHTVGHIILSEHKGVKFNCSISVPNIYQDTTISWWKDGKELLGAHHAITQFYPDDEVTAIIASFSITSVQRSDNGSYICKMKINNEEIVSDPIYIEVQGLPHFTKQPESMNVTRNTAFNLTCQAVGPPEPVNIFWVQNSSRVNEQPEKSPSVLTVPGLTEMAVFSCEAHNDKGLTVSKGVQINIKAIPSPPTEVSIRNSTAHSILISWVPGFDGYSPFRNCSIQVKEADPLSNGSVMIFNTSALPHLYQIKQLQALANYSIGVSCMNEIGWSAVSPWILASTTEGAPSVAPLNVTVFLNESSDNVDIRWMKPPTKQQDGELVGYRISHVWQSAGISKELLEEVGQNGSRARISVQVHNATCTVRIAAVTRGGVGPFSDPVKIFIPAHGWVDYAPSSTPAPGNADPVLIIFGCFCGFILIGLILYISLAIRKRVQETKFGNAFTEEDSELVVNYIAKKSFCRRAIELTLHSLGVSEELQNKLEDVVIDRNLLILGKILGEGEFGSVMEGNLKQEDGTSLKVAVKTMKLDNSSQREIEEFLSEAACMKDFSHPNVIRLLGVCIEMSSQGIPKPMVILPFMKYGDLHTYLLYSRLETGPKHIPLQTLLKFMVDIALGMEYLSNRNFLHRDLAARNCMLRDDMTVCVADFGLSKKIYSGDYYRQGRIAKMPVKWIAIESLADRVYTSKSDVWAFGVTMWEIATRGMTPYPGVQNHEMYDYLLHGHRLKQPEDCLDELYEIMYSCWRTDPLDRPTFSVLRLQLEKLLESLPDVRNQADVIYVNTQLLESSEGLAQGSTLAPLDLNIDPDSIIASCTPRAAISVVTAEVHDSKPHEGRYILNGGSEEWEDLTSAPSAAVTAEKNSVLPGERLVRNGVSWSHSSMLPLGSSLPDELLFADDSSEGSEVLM
Chain of FGFR3 (P22607 whole entry, looked up): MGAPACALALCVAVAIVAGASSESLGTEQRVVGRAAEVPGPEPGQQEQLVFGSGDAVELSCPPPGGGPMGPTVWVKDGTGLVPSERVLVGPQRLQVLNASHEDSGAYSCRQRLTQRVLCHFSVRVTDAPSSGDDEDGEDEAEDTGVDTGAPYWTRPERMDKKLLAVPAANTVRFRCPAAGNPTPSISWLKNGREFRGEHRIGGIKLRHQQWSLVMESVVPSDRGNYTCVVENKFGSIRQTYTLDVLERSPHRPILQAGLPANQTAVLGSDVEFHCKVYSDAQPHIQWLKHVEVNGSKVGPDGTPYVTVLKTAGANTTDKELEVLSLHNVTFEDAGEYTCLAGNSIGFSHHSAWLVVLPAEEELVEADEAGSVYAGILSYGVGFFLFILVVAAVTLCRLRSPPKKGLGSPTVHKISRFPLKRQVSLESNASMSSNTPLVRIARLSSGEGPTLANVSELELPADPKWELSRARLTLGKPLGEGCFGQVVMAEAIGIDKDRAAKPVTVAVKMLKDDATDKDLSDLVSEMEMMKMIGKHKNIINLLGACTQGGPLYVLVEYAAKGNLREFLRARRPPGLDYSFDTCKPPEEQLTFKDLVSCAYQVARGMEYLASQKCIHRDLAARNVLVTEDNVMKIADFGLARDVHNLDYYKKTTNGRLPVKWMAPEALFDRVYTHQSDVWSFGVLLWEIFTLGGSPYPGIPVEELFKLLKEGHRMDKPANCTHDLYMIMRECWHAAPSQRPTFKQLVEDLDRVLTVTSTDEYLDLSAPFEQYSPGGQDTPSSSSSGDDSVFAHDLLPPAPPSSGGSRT
Chain of EPHB1 (P54762 whole entry, looked up): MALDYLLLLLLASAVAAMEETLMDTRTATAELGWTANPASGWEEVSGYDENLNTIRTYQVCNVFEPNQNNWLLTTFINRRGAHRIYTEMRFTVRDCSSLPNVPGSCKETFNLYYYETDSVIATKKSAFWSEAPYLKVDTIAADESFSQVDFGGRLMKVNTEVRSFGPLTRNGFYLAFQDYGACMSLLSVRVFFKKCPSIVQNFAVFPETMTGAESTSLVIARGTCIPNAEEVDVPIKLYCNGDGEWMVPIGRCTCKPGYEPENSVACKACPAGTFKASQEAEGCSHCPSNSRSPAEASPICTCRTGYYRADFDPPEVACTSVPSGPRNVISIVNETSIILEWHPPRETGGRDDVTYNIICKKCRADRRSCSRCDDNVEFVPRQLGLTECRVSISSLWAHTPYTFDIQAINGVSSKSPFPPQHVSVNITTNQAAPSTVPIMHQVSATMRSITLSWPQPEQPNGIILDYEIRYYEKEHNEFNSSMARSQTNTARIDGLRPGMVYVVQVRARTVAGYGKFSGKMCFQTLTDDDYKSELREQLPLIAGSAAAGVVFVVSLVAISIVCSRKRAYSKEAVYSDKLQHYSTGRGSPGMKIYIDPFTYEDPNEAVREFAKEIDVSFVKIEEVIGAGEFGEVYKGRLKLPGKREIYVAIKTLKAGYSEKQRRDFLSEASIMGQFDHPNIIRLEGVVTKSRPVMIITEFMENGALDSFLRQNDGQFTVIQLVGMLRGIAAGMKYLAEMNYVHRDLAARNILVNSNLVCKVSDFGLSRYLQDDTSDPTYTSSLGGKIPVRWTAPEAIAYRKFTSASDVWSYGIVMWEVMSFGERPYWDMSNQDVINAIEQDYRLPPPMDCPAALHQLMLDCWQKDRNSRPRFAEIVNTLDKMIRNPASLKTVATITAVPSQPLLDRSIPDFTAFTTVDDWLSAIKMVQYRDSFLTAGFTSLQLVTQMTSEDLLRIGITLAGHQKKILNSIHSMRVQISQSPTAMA
Chain of Hck (P08631 whole entry, looked up): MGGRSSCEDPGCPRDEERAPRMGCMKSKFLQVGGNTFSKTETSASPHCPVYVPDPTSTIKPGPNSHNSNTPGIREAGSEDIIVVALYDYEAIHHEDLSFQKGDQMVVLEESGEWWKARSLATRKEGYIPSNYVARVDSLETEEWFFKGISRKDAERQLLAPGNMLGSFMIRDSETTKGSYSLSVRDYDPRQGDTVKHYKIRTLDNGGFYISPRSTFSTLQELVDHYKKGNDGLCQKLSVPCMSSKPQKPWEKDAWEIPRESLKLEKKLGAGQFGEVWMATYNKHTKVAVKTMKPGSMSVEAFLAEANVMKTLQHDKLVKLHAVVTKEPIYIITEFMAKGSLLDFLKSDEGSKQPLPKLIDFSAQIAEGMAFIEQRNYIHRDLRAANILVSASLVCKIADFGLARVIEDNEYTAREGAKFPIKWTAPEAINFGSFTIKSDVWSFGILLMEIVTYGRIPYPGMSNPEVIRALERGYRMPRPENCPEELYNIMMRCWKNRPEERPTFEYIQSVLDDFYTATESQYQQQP
Chain of FGFR1 (P11362 whole entry, looked up): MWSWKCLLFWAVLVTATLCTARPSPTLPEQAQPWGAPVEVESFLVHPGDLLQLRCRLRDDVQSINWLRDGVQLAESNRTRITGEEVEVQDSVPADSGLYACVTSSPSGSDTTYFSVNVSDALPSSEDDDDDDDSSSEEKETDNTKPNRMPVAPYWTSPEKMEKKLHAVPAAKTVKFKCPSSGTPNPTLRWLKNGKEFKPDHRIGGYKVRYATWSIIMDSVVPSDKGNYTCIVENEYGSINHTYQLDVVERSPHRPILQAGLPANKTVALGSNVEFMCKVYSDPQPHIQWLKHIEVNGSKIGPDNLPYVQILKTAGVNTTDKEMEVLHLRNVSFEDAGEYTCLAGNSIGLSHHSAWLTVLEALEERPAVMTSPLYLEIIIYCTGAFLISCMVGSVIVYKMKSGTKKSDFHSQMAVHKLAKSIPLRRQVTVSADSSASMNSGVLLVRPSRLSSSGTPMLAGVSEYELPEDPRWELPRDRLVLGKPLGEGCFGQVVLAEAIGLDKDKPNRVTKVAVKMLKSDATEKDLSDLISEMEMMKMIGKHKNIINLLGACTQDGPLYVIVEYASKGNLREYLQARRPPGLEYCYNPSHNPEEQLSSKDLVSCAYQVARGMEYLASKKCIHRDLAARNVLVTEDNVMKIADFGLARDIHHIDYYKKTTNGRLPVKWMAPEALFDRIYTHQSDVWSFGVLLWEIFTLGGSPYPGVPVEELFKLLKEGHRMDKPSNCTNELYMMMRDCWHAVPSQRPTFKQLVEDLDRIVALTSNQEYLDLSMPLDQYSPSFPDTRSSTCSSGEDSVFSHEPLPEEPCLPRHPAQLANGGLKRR
Chain of Fyn (P06241 whole entry, looked up): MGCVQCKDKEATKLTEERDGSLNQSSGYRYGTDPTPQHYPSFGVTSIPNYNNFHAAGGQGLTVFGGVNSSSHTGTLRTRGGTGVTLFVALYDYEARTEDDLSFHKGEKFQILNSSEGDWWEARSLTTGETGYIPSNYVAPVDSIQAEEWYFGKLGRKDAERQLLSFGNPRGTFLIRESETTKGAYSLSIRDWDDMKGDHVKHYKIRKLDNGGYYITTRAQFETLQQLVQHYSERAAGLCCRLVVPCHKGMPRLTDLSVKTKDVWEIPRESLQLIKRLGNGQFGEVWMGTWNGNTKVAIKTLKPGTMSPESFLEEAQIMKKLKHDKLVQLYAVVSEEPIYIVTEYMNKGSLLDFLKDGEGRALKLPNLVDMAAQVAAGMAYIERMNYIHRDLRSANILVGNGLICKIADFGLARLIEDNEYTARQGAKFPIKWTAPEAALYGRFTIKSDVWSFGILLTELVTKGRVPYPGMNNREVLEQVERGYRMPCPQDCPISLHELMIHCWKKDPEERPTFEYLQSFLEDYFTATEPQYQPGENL

| Sequence | SH2 binding enrichment (Grb2 SH2) | SH2 binding enrichment (SHP2-C SH2) | SH2 binding enrichment (c-Src SH2) | phosphorylation enrichment (AncSZ) | phosphorylation enrichment (EPHB1) | phosphorylation enrichment (EPHB2) | phosphorylation enrichment (FGFR1) | phosphorylation enrichment (FGFR3) | phosphorylation enrichment (Fer (mouse)) | phosphorylation enrichment (Fes) | phosphorylation enrichment (Fyn) | phosphorylation enrichment (Hck) | phosphorylation enrichment (Jak2) | phosphorylation enrichment (MERTK) | phosphorylation enrichment (c-Abl (mouse)) | phosphorylation enrichment (c-Src) |
| --- | --- | --- | --- | --- | --- | --- | --- | --- | --- | --- | --- | --- | --- | --- | --- | --- |
| SFPSTYRFERG [INPPL1_Y661_P659S_YF] | 0.828 | 0.655 | 0.466 | 0.538 | 0.345 | 0.394 | 0.411 | 0.538 | 0.427 | 0.652 | 0.39 | 0.479 | 0.724 | 0.392 | 0.644 | 0.569 |
| SGASGYSATST [CERT1_Y143] | 0.704 | 0.578 | 0.486 | 0.594 | 0.391 | 0.514 | 0.478 | 0.446 | 0.448 | 0.594 | 0.491 | 0.478 | 0.539 | 0.44 | 0.468 | 0.417 |
| SIKDKYVMALY [KCNH2_Y611_T613M] | 0.836 | 0.679 | 0.514 | 0.639 | 0.505 | 0.481 | 0.638 | 0.547 | 0.45 | 0.734 | 0.483 | 0.59 | 0.648 | 0.441 | 0.599 | 0.422 |
| SISFDYCRVPM [BST2_Y8_T4I_YF] | 0.726 | 0.65 | 0.39 | 1.65 | 2.13 | 1.36 | 1.43 | 1.39 | 0.533 | 1.15 | 0.463 | 0.546 | 1.43 | 0.547 | 0.785 | 0.528 |
| SLAARYFNWVS [FLT4_Y1230_YF] | 2.68 | 1.39 | 1.15 | 1.15 | 0.586 | 0.698 | 0.555 | 0.718 | 0.479 | 1.26 | 0.494 | 0.532 | 0.935 | 0.636 | 0.822 | 0.431 |
| SLDLSYFPTSS [EMD_Y181_YF] | 0.8 | 1.1 | 0.414 | 0.879 | 0.426 | 0.513 | 0.59 | 0.635 | 0.353 | 0.793 | 0.496 | 0.432 | 2.93 | 0.56 | 0.632 | 0.502 |
| SLDLSYFTTSS [EMD_Y181_P183T_YF] | 0.803 | 0.675 | 0.55 | 0.876 | 0.468 | 0.475 | 0.499 | 0.605 | 0.37 | 0.836 | 0.38 | 0.451 | 1.04 | 0.371 | 0.644 | 0.382 |
| SNPAFYVLEGV [INPPL1_Y987_N982S_YF] | 0.919 | 0.752 | 0.714 | 0.818 | 0.469 | 0.559 | 0.509 | 0.63 | 0.427 | 1.06 | 0.648 | 0.441 | 0.765 | 0.517 | 0.646 | 0.732 |
| SPPILYSFFLN [FCRL6_Y239_D244N_YF] | 1.29 | 1.28 | 0.763 | 1.08 | 3.03 | 2.36 | 1.41 | 1.38 | 5.01 | 1.17 | 2.46 | 3.03 | 1.05 | 10.5 | 2.75 | 3.41 |
| SRIWVYNHYRC [BRCA2_Y2621_W2626C] | 0.938 | 0.864 | 0.695 | 0.927 | 0.555 | 0.587 | 0.51 | 0.726 | 0.482 | 1.11 | 0.396 | 0.459 | 0.934 | 0.377 | 0.65 | 0.392 |
| SRIWVYNHYRW [BRCA2_Y2621] | 1.14 | 1.1 | 1.17 | 1.05 | 0.671 | 0.466 | 0.574 | 0.845 | 0.396 | 1.59 | 0.469 | 0.442 | 0.95 | 0.466 | 0.783 | 0.402 |
| SRPHLYGTPSR [ADGRE2_Y670] | 1.54 | 0.825 | 1.09 | 0.609 | 0.493 | 0.617 | 0.426 | 0.619 | 0.402 | 0.587 | 0.615 | 0.565 | 0.588 | 0.58 | 0.538 | 0.441 |
| SSENPYATIKD [MEGF10_Y1030] | 0.985 | 9.45 | 14 | 0.87 | 0.458 | 0.597 | 0.496 | 0.53 | 0.944 | 0.897 | 1.52 | 1.65 | 0.876 | 0.506 | 0.741 | 2.31 |
| SSNLFYRWLTA [CNGA3_Y169_YF] | 0.692 | 0.591 | 0.466 | 1.09 | 0.594 | 0.526 | 0.621 | 0.744 | 0.493 | 0.982 | 0.473 | 0.557 | 0.846 | 0.532 | 0.665 | 0.398 |
| STFVPCEIKVQ [L1CAM_Y784_Y784C] | 0.819 | 0.578 | 0.497 | 1.3 | 0.685 | 0.727 | 0.579 | 1.05 | 0.669 | 1.61 | 0.49 | 0.589 | 1.39 | 0.386 | 1.04 | 0.444 |
| STILLYHIMAW [GPR143_Y157] | 0.876 | 0.899 | 0.634 | 1.59 | 4.83 | 2.88 | 2.8 | 2.88 | 1.02 | 1.64 | 0.766 | 1.44 | 1.89 | 4.05 | 1.23 | 1.01 |

Further lines, with some results ahead:

| SH2 binding enrichment (Grb2 SH2) | SH2 binding enrichment (SHP2-C SH2) | SH2 binding enrichment (c-Src SH2) | Sequence | phosphorylation enrichment (AncSZ) | phosphorylation enrichment (EPHB1) | phosphorylation enrichment (EPHB2) | phosphorylation enrichment (FGFR1) | phosphorylation enrichment (FGFR3) | phosphorylation enrichment (Fer (mouse)) | phosphorylation enrichment (Fes) | phosphorylation enrichment (Fyn) | phosphorylation enrichment (Hck) | phosphorylation enrichment (Jak2) | phosphorylation enrichment (MERTK) | phosphorylation enrichment (c-Abl (mouse)) | phosphorylation enrichment (c-Src) |
| --- | --- | --- | --- | --- | --- | --- | --- | --- | --- | --- | --- | --- | --- | --- | --- | --- |
| 0.783 | 0.584 | 0.486 | SFCFRYRCAPR [SUMF1_Y344_A348P_YF] | 0.883 | 0.527 | 0.549 | 0.509 | 0.587 | 0.726 | 0.69 | 0.605 | 0.633 | 0.811 | 0.73 | 0.75 | 0.701 |
| 1.12 | 0.891 | 0.77 | SGRPGYCLGTR [SCO1_Y60] | 0.735 | 0.488 | 0.51 | 0.406 | 0.563 | 0.407 | 0.874 | 0.474 | 0.426 | 0.58 | 0.462 | 0.618 | 0.41 |
| 0.58 | 0.373 | 0.468 | SGRRRYTIAAL [TTR_Y125_P122R] | 0.602 | 0.615 | 0.581 | 0.547 | 0.598 | 0.6 | 0.622 | 0.61 | 0.517 | 0.51 | 0.601 | 0.512 | 0.736 |
| 1.77 | 15.5 | 1.92 | SHNKYYMLVAR [MFSD8_Y134] | 0.825 | 0.943 | 0.675 | 5.4 | 3.28 | 0.486 | 0.939 | 0.494 | 0.658 | 1.14 | 2.9 | 0.6 | 0.487 |
| 0.661 | 0.486 | 0.544 | SIDLGYHKDLQ [NF1_Y1169_G1166D] | 1.17 | 0.46 | 0.478 | 0.607 | 0.485 | 0.503 | 0.777 | 0.51 | 0.454 | 0.856 | 0.531 | 0.557 | 0.552 |
| 1.16 | 1.04 | 0.81 | SKEPYYVHCIK [MYO1D_Y586_R588H] | 0.965 | 0.622 | 0.704 | 0.77 | 0.664 | 0.498 | 0.932 | 0.58 | 0.557 | 0.677 | 0.559 | 0.615 | 0.543 |
| 0.991 | 29.3 | 11.1 | SKGYAYVHFDS [PABPC5_Y149] | 1.22 | 0.575 | 0.561 | 0.632 | 0.749 | 0.584 | 1.25 | 0.449 | 0.53 | 1.05 | 0.37 | 0.953 | 0.479 |
| 0.892 | 0.873 | 0.518 | SLALFYRNVFH [RBL1_Y792_K794N_YF] | 0.962 | 0.573 | 1.02 | 0.447 | 0.649 | 0.497 | 1.19 | 0.49 | 0.5 | 1.02 | 0.422 | 0.688 | 0.409 |
| 0.763 | 0.678 | 0.632 | SLGKGYSDGGC [MC4R_Y35] | 0.636 | 0.456 | 0.473 | 0.576 | 0.585 | 0.399 | 0.773 | 0.47 | 0.427 | 0.719 | 0.392 | 0.603 | 0.387 |
| 0.877 | 0.697 | 0.442 | SLMNQYVNKKF [RAB7A_Y28] | 0.474 | 0.291 | 0.373 | 0.381 | 0.396 | 0.398 | 0.579 | 0.383 | 0.427 | 0.44 | 0.315 | 0.447 | 0.342 |
| 0.691 | 0.572 | 0.39 | SNSATYSGSVA [PDLIM5_Y382] | 0.748 | 0.347 | 0.497 | 0.432 | 0.483 | 0.392 | 0.624 | 0.561 | 0.56 | 0.48 | 0.516 | 0.576 | 0.498 |
| 1.09 | 0.729 | 0.519 | SPFAVYLFFTF [RPGRIP1_Y826_R827L_YF] | 0.99 | 0.434 | 0.744 | 0.467 | 0.63 | 0.335 | 0.925 | 0.477 | 0.361 | 0.891 | 0.34 | 0.754 | 0.425 |
| 0.878 | 0.712 | 0.484 | SPLTDYSPQLQ [OTC_Y345_L341P] | 0.749 | 0.414 | 0.517 | 0.522 | 0.489 | 0.421 | 0.67 | 0.403 | 0.417 | 0.691 | 0.479 | 0.661 | 0.496 |
| 0.729 | 0.54 | 0.428 | SQPASYQRRLL [PPIG_Y320] | 0.394 | 0.313 | 0.337 | 0.472 | 0.396 | 0.286 | 0.451 | 0.53 | 0.253 | 0.35 | 0.316 | 0.301 | 0.365 |
| 0.744 | 0.641 | 0.373 | SSMIDYNPLEK [MYOC_Y479] | 0.971 | 0.517 | 0.533 | 0.475 | 0.595 | 0.44 | 0.945 | 0.596 | 0.512 | 1.07 | 0.463 | 0.663 | 0.689 |
| 0.746 | 0.558 | 0.525 | SSMSDYNPLEK [MYOC_Y479_I477S] | 0.87 | 0.501 | 0.515 | 0.506 | 0.581 | 0.558 | 0.876 | 0.47 | 0.525 | 0.756 | 0.425 | 0.657 | 0.439 |
| 0.752 | 0.551 | 0.355 | STEAIYWRYSK [SH3PXD2B_Y42_R43W] | 1.33 | 1.44 | 1.39 | 1.54 | 1.53 | 0.502 | 1.28 | 4.84 | 3.66 | 1.26 | 1.34 | 8.71 | 3.47 |
